Measurements: article PMC10827754, “The crystal structure of SUN1-KASH6 reveals an asymmetric LINC complex architecture compatible with nuclear membrane insertion” (Communications Biology, 2024)
Several values for one entry are separate records, joined by “and”; a condition that tells them apart may be missing. Equal entries are not always repeated.

Experiments:
[1] = molecular target: SUN domain of human SUN1 (amino-acids 616-812) (human); experiment: SEC-MALS; untreated (native) co-purified complex; 8-13 mg/ml loaded on Superdex 200 Increase 10/300 GL in 20 mM Hepes pH 7.5, 150 mM KCl, 2 mM DTT
[2] = molecular target: SUN domain of human SUN1 (amino-acids 616-812) (human); experiment: SEC-MALS; co-purified complex treated overnight in 20 mM sodium acetate pH 5.0, 150 mM KCl, 10% glycerol, 2 mM DTT, then analysed in 20 mM Hepes pH 7.5, 150 mM KCl, 2 mM DTT
[3] = molecular target: SUN domain of human SUN1 (amino-acids 616-812) (human); experiment: crystal structure; co-expressed and co-purified SUN1-KASH6 at 12 mg/ml; sitting drops, 20 °C; MES pH 6.0 (1.7 Å), Bis Tris pH 5.5 (2.3 Å), sodium citrate pH 5.5 (2.0 Å)
[4] = molecular target: the molecule itself; experiment: as above
[5] = molecular target: SUN domain of human SUN1 (amino-acids 616-812) (human); experiment: as above; remark: listed apart in the source
[6] = molecular target: SUN domain of human SUN1 (amino-acids 616-812) (human); experiment: SEC-MALS; untreated (native) co-purified complex; 8-13 mg/ml loaded on Superdex 200 Increase 10/300 GL in 20 mM Hepes pH 7.5, 150 mM KCl, 2 mM DTT; remark: listed apart in the source

Molecule: SUN domain of human SUN1 (amino-acids 616-812) (domain or fragment)
- stoichiometry N [1]: 6
- stoichiometry N [2]: 9 and 6
- stoichiometry N [3]: 9

B1: KASH domain of human JAW1/LRMP (KASH6, amino-acids 515-555) (peptide, UniProt Q12912 515-555, looked up)
chain: TGQLFQKSVDAAPTQQEDSWTSLEHILWPFTRLRHNGPPPV
notes: JAW1/LRMP (lymphoid restricted membrane protein), human, KASH domain, amino-acids 515-555; KASH6α, KASH6β and KASH6γ are the same peptide in three conformations or sites of the crystal structure; also called KASH6α; KASH6β; not shown: His6, N-terminal, cleaved; MBP, N-terminal, cleaved
- stoichiometry N (KASH6 per SUN1) [2]: 0.67 and 1
- binding result [4]: binds
- stoichiometry N (KASH6 per SUN1) [5]: 0.67
- stoichiometry N (KASH6 per SUN1) [6]: 1

B2: KASH6 core H539K (human JAW1/LRMP amino-acids 531-555) (peptide)
chain: EDSWTSLEKILWPFTRLRHNGPPPV
- percent (by mass) as 6:6 complex [6]: 40 % (by mass)
- percent (by mass) as 9:6 complex [6]: 60 % (by mass)
- stoichiometry N (KASH6 per SUN1) [6]: 1 and 0.67

B3: KASH6 core (human JAW1/LRMP amino-acids 531-555) (peptide)
chain: EDSWTSLEHILWPFTRLRHNGPPPV
- percent (by mass) as 6:6 complex [2]: 15 % (by mass)
- percent (by mass) as 9:6 complex [2]: 85 % (by mass)
- stoichiometry N (KASH6 per SUN1) [2]: 0.67
- stoichiometry N (KASH6 per SUN1) [6]: 1

B4: KASH6 core W534A (human JAW1/LRMP amino-acids 531-555) (peptide)
chain: EDSATSLEHILWPFTRLRHNGPPPV
- stoichiometry N (KASH6 per SUN1) [2]: 1

B5: KASH6 core H539Q (human JAW1/LRMP amino-acids 531-555) (peptide)
chain: EDSWTSLEQILWPFTRLRHNGPPPV
- stoichiometry N (KASH6 per SUN1) [2]: 1

B6: KASH6 core H549Y (human JAW1/LRMP amino-acids 531-555) (peptide)
chain: EDSWTSLEHILWPFTRLRYNGPPPV
- percent (by mass) as 6:6 complex [2]: 55 % (by mass)
- percent (by mass) as 9:6 complex [2]: 45 % (by mass)
- stoichiometry N (KASH6 per SUN1) [2]: 0.67 and 1
